According to article PMC8109025 (Bioconjugate chemistry, 2020):

Tests used:
[1] = molecular target: 1N:1E nanobody-enzyme megamolecule (one cutinase-5F7 nanobody fusion covalently linked to one SnapTag-yCD fusion) (yeast); test: enzyme activity against protein concentration
[2] = molecular target: 1N:1E nanobody-enzyme megamolecule (one cutinase-5F7 nanobody fusion covalently linked to one SnapTag-yCD fusion) (yeast); test: negative-stain transmission electron microscopy
[3] = molecular target: 1N:1E nanobody-enzyme megamolecule (one cutinase-5F7 nanobody fusion covalently linked to one SnapTag-yCD fusion) (yeast); test: SEC
[4] = molecular target: 2N:1E nanobody-enzyme megamolecule (two cutinase-5F7 nanobody fusions covalently linked to one SnapTag-yCD fusion) (yeast); test: negative-stain transmission electron microscopy
[5] = molecular target: 2N:1E nanobody-enzyme megamolecule (two cutinase-5F7 nanobody fusions covalently linked to one SnapTag-yCD fusion) (yeast); test: SEC
[6] = molecular target: the molecule itself; test: enzyme activity against protein concentration
[7] = molecular target: the molecule itself; test: SEC

1N:1E nanobody-enzyme megamolecule (one cutinase-5F7 nanobody fusion covalently linked to one SnapTag-yCD fusion)
Kd [1]: 38 µM
stoichiometry N [2]: 2
stoichiometry N [3]: 2

2N:1E nanobody-enzyme megamolecule (two cutinase-5F7 nanobody fusions covalently linked to one SnapTag-yCD fusion)
stoichiometry N [4]: 2
stoichiometry N [5]: 2

B1: SnapTag-yeast cytosine deaminase fusion protein (enzyme, UniProt Q12178 1-158, looked up)
chain: MVTGGMASKWDQKGMDIAYEEAALGYKEGGVPIGGCLINNKDGSVLGRGHNMRFQKGSATLHGEISTLENCGRLEGKVYKDTTLYTTLSPCDMCTGAIIMYGIPRCVVGENVNFKSKGEKYLQTRGHEVVVVDDERCKKIMKQFIDERPQDWFEDIGE
Kd [6]: 12 µM
stoichiometry N [7]: 2
